From patent US7064181 (Takeda / Millennium, dated 2006) come the findings set out here.

For assay [1], the target named is T1, rat GALR2 (galanin receptor type 2) (rat, UniProt O08726 1-372).
T1 construct: Expressed in CHO/dhfr- cells; The assays used the membrane fraction of these cells; also called rat galanin receptor GALR2
T1 sequence: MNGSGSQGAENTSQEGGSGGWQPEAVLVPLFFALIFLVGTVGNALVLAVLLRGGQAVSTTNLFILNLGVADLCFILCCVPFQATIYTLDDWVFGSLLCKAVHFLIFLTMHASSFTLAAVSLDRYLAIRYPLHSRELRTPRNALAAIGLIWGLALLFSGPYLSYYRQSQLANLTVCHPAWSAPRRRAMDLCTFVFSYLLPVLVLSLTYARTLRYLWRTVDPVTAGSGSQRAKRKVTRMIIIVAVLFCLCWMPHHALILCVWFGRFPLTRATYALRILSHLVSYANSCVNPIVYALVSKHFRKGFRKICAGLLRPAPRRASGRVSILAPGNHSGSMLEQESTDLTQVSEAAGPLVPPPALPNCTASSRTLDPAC
Briefly: displacement of [125I] rat galanin from GALR2-expressing CHO cell membrane fraction. (In a radioligand displacement assay an active substance lowers the binding of a labelled ligand.)

For assay [2], the target named is T2, monoclonal antibody GR2-1N.
T2 construct: Mouse monoclonal against the same KLH complex; IgG2b, κ; also called hybridoma strain No. 4
Briefly: competitive EIA on GR2-1N, competitor HRP-labeled SEQ ID NO:44 peptide.

On to APVHRGRGGWTLNSAGYLLGPVLHPPSRAEGGGK (also called porcine (1-34)) [porcine ligand peptide (1-34)], for which the 50% inhibitory concentration (IC50) (as a rule, the point on the concentration scale where inhibition reaches its midpoint) in assay [1] was determined as 1.4 nM.
The same measure, in the same setting: the figure for APVHRGRGGWTLNSAGYLLGPVLHPPSRAE (also called porcine (1-30)) [porcine ligand peptide (1-30)] is 1.4 nM.

B1: porcine ligand peptide (1-60) (peptide)
peptide: APVHRGRGGWTLNSAGYLLGPVLHPPSRAEGGGKGKTALGILDLWKAIDGLPYPQSQLAS
notes: also called porcine (1-60); inventive peptide synthesis product
On to B1, for which the IC50 in assay [2] was determined as 6 nM.
